{"source": "paper PMC7296103", "about": "“Live Cell Imaging Demonstrates Multiple Routes Toward a STAT1 Gain-of-Function Phenotype” (Frontiers in Immunology, 2020)", "proteins": {"B1": {"name": "STAT1-GFP T419R (natural protein, UniProt P42224 1-750, looked up)", "chain": "MSQWYELQQLDSKFLEQVHQLYDDSFPMEIRQYLAQWLEKQDWEHAANDVSFATIRFHDLLSQLDDQYSRFSLENNFLLQHNIRKSKRNLQDNFQEDPIQMSMIIYSCLKEERKILENAQRFNQAQSGNIQSTVMLDKQKELDSKVRNVKDKVMCIEHEIKSLEDLQDEYDFKCKTLQNREHETNGVAKSDQKQEQLLLKKMYLMLDNKRKEVVHKIIELLNVTELTQNALINDELVEWKRRQQSACIGGPPNACLDQLQNWFTIVAESLQQVRQQLKKLEELEQKYTYEHDPITKNKQVLWDRTFSLFQQLIQSSFVVERQPCMPTHPQRPLVLKTGVQFTVKLRLLVKLQELNYNLKVKVLFDKDVNERNTVKGFRKFNILGTHTKVMNMEESTNGSLAAEFRHLQLKEQKNAGTRRNEGPLIVTEELHSLSFETQLCQPGLVIDLETTSLPVVVISNVSQLPSGWASILWYNMLVAEPRNLSFFLTPPCARWAQLSEVLSWQFSSVTKRGLNVDQLNMLGEKLLGPNASPDGLIPWTRFCKENINDKNFPFWLWIESILELIKKHLLPLWNDGCIMGFISKERERALLKDQQPGTFLLRFSESSREGAITFTWVERSQNGGEPDFHAVEPYTKKELSAVTFPDIIRNYKVMAAENIPENPLKYLYPNIDKDHAFGKYYSRPKEAPEPMELDGPKGTGYIKTELISVSEVHPSRLQTTDNLLPMSPEEFDEVSRIVGSVEFDSMMNTV", "notes": "Mutation reported in patients; also called STAT1T419R-eGFP; source: measured in living cells; not shown: eGFP, C-terminal, kept"}}, "molecular_target": "the molecule itself", "test": "raster image correlation spectroscopy (RICS), molecular brightness; living U3A cells after IFNγ (1 U/μl, 1 h), 37°C; nucleus; brightness as fold of cytoplasmic STAT1 WT; dimers to tetramers"}
{"protein": "B1", "values": [{"measurement": "stoichiometry N", "value": 2}]}
